Measurements reported in the supplement of paper PMC9170038.

Tested on: MS2 coat protein
Test: apparent KD of MS2 coat protein; designed switch direction (-1 OFF switch, 1 ON switch): 1; higher = weaker reporter binding
Procedure, shortened: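 The buffer was Tris-HCl pH 7.5 with KCl, MgCl2, BSA, DTT, tRNA and Tween-20. In it, SNAP-549-labelled MS2 coat protein was titrated in doubling steps from 0.7 or 1.5 nM to 3 µM over chip-bound RNA switches transcribed by stalled E. coli RNA polymerase on Illumina chips. Apparent KD is the per-design median over clusters of curve fits to normalised fluorescence.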

[1] = input ligand: microRNA oligo, concentration not stated
[2] = Eterna round: R95, input ligand: FMN 200 uM
[3] = Eterna round: R95, input ligand: microRNA oligo, concentration not stated
[4] = Eterna round: R95, input ligand: none

Row | Sequence | apparent KD of MS2 coat protein (input ligand: FMN 200 uM) | apparent KD of MS2 coat protein [1] | apparent KD of MS2 coat protein (input ligand: none) | apparent KD of MS2 coat protein [2] | apparent KD of MS2 coat protein [3] | apparent KD of MS2 coat protein [4]
1 | GCGAGCGUACUUGCAGACAUGAGGAUCACCCAUGUAACUGGACAGGAUAUGGUACCGUUUCGGUACCAGAAGGGUUUAUUCAUG [JL SSNG3 3.56] (Eterna round: R96, puzzle: Same State NG 3) | 83.4 nM | 63.5 nM | 56.2 nM | – | – | –
2 | GCGCAGCUGAGUGAGGAUAUCGGUGGUAAAACAUGAGGAUCACCCAUGUCCGAAGCUCGGACUUCCGAGAAGGCACCCGGCUGCA [Inisusbeor] (puzzle: Same State 2) | – | – | – | 11.9 nM | 47.4 nM | 73.5 nM
3 | GCGCGAAAGAGCGAGGAUAUGCGGCGUAUAACAUGAGGAUCACCCAUGUCCUUCGAAUCUUGUACGCAGAAGGCGCUACAGGCGC [Robot Leg] (puzzle: Same State 2) | – | – | – | 154 nM | 61 nM | 62.2 nM
4 | GCGGAAACUCACAUGAGGAUCACCCAUGUUCCGGAAACGGCACAGGAUAUCUGUCCGAAAAGGUCAGAGAAGGGUGAAAUCCGC [Fiskers NG3ss - 92] (Eterna round: R96, puzzle: Same State NG 3) | 282 nM | 9.95 nM | 54.8 nM | – | – | –
5 | GCUACCAAUGAAGCCAACAUGAGGAUCACCCAUGUAUGUUGGUAGGAUAUCGUUUGCAAAGCAAACGAGAAGGGCUAAGGUAGC [Mat - Same State NG 3 - JL Mod - D75] (Eterna round: R96, puzzle: Same State NG 3) | 62.8 nM | 36.8 nM | 51 nM | – | – | –
6 | GCUACCAAUGAAGCCUACAUGAGGAUCACCCAUGUAUGUAGGCAGGAUAUCGAUUGCAAAGCGAUCGAGAAGGGCUUAGGUAGC [Mat - Same State NG 3 - JL Mod - D91] (Eterna round: R96, puzzle: Same State NG 3) | 35.9 nM | 79.6 nM | 95.8 nM | – | – | –
7 | GCUAGAAAUAAAGCCAACAUGAGGAUCACCCAUGUAUGUUGGCAGGAUAUCGUUUGCUUUGCAAACGAGAAGGGCCAAACUAGC [Mat - Same State NG 3 - JL Mod - D1] (Eterna round: R96, puzzle: Same State NG 3) | 57 nM | 127 nM | 129 nM | – | – | –
8 | GCUAGGAUAUGACCAGGAUCACCGGUUAGAAGGAGCGAAAGCUAGGAUAUGACCAGGAUCACCGGUUAGAAGGAGCUGUCCUCC [pwkr ssNG3 DX 2xF5 +2xFMN.12] (Eterna round: R96, puzzle: Same State NG 3) | 69.1 nM | 101 nM | 117 nM | – | – | –
9 | GCUAGUAUUAUUGUCAACAUGAGGAUCACCCAUGUAUGUUGGCAGGAUAUCGUUUGCAAAGCAAACGAGAAGGGCUAAACUAGC [Mat - Same State NG 3 - JL Mod - D10] (Eterna round: R96, puzzle: Same State NG 3) | 71.9 nM | 105 nM | 185 nM | – | – | –
10 | GCUCGACUGAUGGCCUACAUGAGGAUCACCCAUGUGAUUGGGCAGGAUAUCUAGAUGCAGGAUGUAGAGAAGGGCCAGUCGAGC [SameState NG3 #45] (Eterna round: R96, puzzle: Same State NG 3) | 1130 nM | 477 nM | 503 nM | – | – | –
11 | GCUCGGCUGAUGGCCUACAUGAGGAUCACCCAUGUGACUGGGCAGGAUAUCUAGAUGCAGGAUGUAGAGAAGGGCCUGCCGAGC [SameState NG3 #42] (Eterna round: R96, puzzle: Same State NG 3) | 704 nM | 224 nM | 458 nM | – | – | –
12 | GCUCGGCUGAUGGCCUACAUGAGGAUCACCCAUGUGUGUGGGCAGGAUAUCUAGAUUAAGGAUGUAGAGAAGGGCCUGCCGAGC [SameState NG3 #38] (Eterna round: R96, puzzle: Same State NG 3) | 2620 nM | 340 nM | 972 nM | – | – | –
13 | GCUGCAAUAAACGCCUACAUGAGGAUCACCCAUGUAUGUAGGCAGGAUAUCGUUUGCAAAGCAAACGAGAAGGGCUGUAGUAGC [Mat - Same State NG 3 - JL Mod - D38] (Eterna round: R96, puzzle: Same State NG 3) | 52.6 nM | 59.8 nM | 101 nM | – | – | –
14 | GCUGCAAUUAACGCCUACAUGAGGAUCACCCAUGUAUGUAGGCAGGAUAUCGUUUGCAAAGCAAACGAGAAGGGCUGUAGUAGC [Mat - Same State NG 3 - JL Mod - D37] (Eterna round: R96, puzzle: Same State NG 3) | 65.4 nM | 83.4 nM | 113 nM | – | – | –
15 | GCUGCAAUUAACGCCUACAUGAGGAUCACCCAUGUAUGUAGGCAGGAUAUCGUUUGCUUUGCAAACGAGAAGGGCCGUAGUAGC [JL SSNG3 1.12] (Eterna round: R96, puzzle: Same State NG 3) | 22.8 nM | 37.6 nM | 63.1 nM | – | – | –
16 | GGAAAACAUGAGGAUCACCCAUGUAAUAAUAUGGGAGGAUAUCAGAUUUAAUUUAAUUUAUGAGAAGGCCUAAAGG [Mat - Same State 1 - Mod of Eli - D64] (puzzle: Same State 1) | – | – | – | 85 nM | 43.2 nM | 30.6 nM
17 | GGAAACUUGAGAGGAUAUGUAGAGGAUCACCCUACAGAAGGCUCAUUUGAGAGGAUAUGUAGAGGAUCACCCUACAGAAGGCUC [pwkr ssNG DX.13] (Eterna round: R96, puzzle: Same State NG 1) | 29.6 nM | 26 nM | 72.4 nM | – | – | –
18 | GGAAAGAGGUAAGGAUAUGCAUGGCUGGGACAUGAGGAUCACCCAUGUUGGAGAAGAAAUCUAGGGUAGAAGGUACAAGGAAGG [AK SSNG2-V2-10] (Eterna round: R96, puzzle: Same State NG 2) | 240 nM | 220 nM | 203 nM | – | – | –
19 | GGAAGGAGGUCAGGAUAUGAACGGAAGGUACAUGAGGAUCACCCAUGUUACGGAGGAAGGAAACGUUAGAAGGGACAAGGAAGG [AK SSNG2-V2-3] (Eterna round: R96, puzzle: Same State NG 2) | 14.8 nM | 12.8 nM | 18.1 nM | – | – | –
20 | GGAAUAUGAUGUUACAUGAGGAUCACCCAUGUAGUAAUAACUAAGGAUAUCUGUUAUGAUUAAUAAGAGAAGGUAGGAUCAUAA [AK SSNG3-V2-9] (Eterna round: R96, puzzle: Same State NG 3) | 23.6 nM | 19 nM | 25.8 nM | – | – | –
21 | GGAAUAUUUACAGGAUAUGAGUUGUAAAGUCGAUCAGAAGGGUAGAUGUCUUACACGGUUUGUUACAUGAGGAUCACCCAUGUU [SameState NG1 #18] (Eterna round: R96, puzzle: Same State NG 1) | 66.9 nM | 75.6 nM | 86.6 nM | – | – | –
22 | GGACGUCACAUUAACAUGAGGAUCACCCAUGUCAAAAGACAUGAGGAUAUGGAUCCUAAUUGGAUCCAGAAGGCAUGGACGUCC [Fiskers NG3ss - 39] (Eterna round: R96, puzzle: Same State NG 3) | – | 373 nM | – | – | – | –
23 | GGACGUCAUCUCACUGAUUAAACAUGAGGAUCACCCAUGUCACAGGAUAUGGAUCCGAUUAGGAUCCAGAAGGGUGUGACGUCC [Fiskers NG3ss - 43] (Eterna round: R96, puzzle: Same State NG 3) | 21.4 nM | 19.3 nM | 24.2 nM | – | – | –
24 | GGACGUCAUCUCACUGAUUAAACAUGAGGAUCACCCAUGUCAGAGGAUAUGAGUCCGAUUAGGACUCAGAAGGCUGUGACGUCC [Fiskers NG3ss - 46] (Eterna round: R96, puzzle: Same State NG 3) | 19.6 nM | 9.14 nM | 16 nM | – | – | –
25 | GGAGAGAGAGCGCAGGAUAUUCAAGGAGAAACAUGAGGAUCACCCAUGUGAGAGAGAGAGGAGAGGGAGAAGGGUGAGAGAGAGG [Altered State 2-13 - Jieux - Same State 2] (puzzle: Same State 2) | – | – | – | 23.1 nM | 30.4 nM | 33.6 nM
26 | GGAGCCAAGGCAGGAUAUUCAUAUUAAUAAACAUGAGGAUCACCCAUGUAGGCCAGAAGGCCUUGGGAGAAGGGCCAUGGCUCG [Xeonanis - 13 mod5] (Eterna round: R96, puzzle: Same State NG 2) | 21.3 nM | 120 nM | 196 nM | – | – | –
